Biological target: T1, positive transcription elongation factor (P-TEFb), a complex of CDK9 and Cyclin T1 (UniProt P50750 1-372; O60563 1-726)
T1 construct: also called CDK9/CycT1; small complex
Test: glycerol gradient (10-45%) sedimentation of J89GFP cell lysates, Western blot of fractions with anti-CDK9 and anti-HEXIM-1
Procedure: Each gradient fraction was separated on a 10% SDS-PAGE gel and transferred by Western blot. […] Band densities were determined using ImageJ and are presented as relative band density. […] Band densities were determined using ImageJ and are presented as relative band density.
Ten million J89GFP or CA5 T cells were left untreated or treated with 0.004 μg/mL, […] 1 μg/mL dactinomycin for 18 hours or 1 hour, respectively. Cells were washed twice with cold PBS, then lysed for 30 minutes on ice in lysis buffer (0.5% TritonX100, 20 mM HEPES (pH7.9), 150 mM NaCl, 20 mM KCl, 2 mM MgCl2, 1 mM DTT, 0.2 mM EDTA, and protease inhibitor cocktail (P8340; SIGMA)), followed by centrifugation at 14,000 rpm for 10 minutes. The same amount of protein lysate was fractionated on 5 ml of a 10-45% glycerol gradient in lysis buffer in a SW-Ti55 rotor (Beckman Coulter; Miami, Fla.) for 16 hours at 45,000 rpm. Fractions were resolved on 10% SDS-PAGE and transferred to polyvinylidene fluoride membrane. The antibodies used for Western blotting were rabbit anti-Cdk9 (sc-484; Santa Cruz Biotechnology; Santa Cruz, Calif.) and rabbit anti-HEXIM1 (ab25388; Abcam; Cambridge, Mass.), respectively. […]

T1 sequence (P50750 whole entry, chain 1 of 2): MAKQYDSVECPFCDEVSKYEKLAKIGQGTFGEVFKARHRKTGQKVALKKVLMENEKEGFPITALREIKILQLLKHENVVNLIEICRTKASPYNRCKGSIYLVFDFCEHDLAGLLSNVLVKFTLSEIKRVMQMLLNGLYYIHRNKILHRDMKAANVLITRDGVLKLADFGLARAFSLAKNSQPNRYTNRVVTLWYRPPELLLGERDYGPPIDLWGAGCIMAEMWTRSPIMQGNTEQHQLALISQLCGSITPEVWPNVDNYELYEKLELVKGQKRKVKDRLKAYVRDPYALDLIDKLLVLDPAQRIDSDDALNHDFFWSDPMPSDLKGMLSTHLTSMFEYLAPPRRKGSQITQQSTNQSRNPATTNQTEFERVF
T1 sequence (O60563 whole entry, chain 2 of 2): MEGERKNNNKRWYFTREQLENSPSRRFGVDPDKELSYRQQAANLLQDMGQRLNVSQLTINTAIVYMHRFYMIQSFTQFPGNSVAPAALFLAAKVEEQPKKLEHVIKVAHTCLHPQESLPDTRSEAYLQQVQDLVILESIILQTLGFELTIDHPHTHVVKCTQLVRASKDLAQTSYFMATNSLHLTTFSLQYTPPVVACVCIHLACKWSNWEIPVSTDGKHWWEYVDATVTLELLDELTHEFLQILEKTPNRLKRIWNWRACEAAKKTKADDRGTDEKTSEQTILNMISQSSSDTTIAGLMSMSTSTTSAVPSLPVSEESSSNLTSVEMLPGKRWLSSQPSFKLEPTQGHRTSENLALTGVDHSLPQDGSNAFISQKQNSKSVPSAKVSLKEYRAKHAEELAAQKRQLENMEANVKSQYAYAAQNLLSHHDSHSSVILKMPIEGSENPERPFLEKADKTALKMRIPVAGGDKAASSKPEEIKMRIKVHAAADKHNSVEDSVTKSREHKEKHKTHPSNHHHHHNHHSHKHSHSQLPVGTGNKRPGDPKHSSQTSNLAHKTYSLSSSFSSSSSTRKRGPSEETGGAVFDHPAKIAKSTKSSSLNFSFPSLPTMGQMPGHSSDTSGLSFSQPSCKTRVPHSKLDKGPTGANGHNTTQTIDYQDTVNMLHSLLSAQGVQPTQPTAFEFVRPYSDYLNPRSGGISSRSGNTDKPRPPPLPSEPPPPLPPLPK

B1: HEXIM-1 (other, UniProt O94992 1-359, looked up)
chain: MAEPFLSEYQHQPQTSNCTGAAAVQEELNPERPPGAEERVPEEDSRWQSRAFPQLGGRPGPEGEGSLESQPPPLQTQACPESSCLREGEKGQNGDDSSAGGDFPPPAEVEPTPEAELLAQPCHDSEASKLGAPAAGGEEEWGQQQRQLGKKKHRRRPSKKKRHWKPYYKLTWEEKKKFDEKQSLRASRIRAEMFAKGQPVAPYNTTQFLMDDHDQEEPDLKTGLYSKRAAAKSDDTSDDDFMEEGGEEDGGSDGMGGDGSEFLQRDFSETYERYHTESLQNMSKQELIKEYLELEKCLSRMEDENNRLRLESKRLGGDDARVRELELELDRLRAENLQLLTENELHRQQERAPLSKFGD
B1: binds.

Source: patent US20130096054A1, “LATENT HUMAN IMMUNODEFICIENCY VIRUS REACTIVIATION” (priority 2010, published 2013)
